In patent US20120028913A1 (BIOKINE THERAPEUTICS, published 2012):
Each block holds one binder with its values, some of them ahead of it. Bridges are numbered along the chain shown (N, C = ends). Where no end group is shown, it is not given here. The star is where a group is joined. Biotin = O=C1N[C@H]2[C@H](CS[C@H]2CCCCC(=O)*)N1

Key:
Human MCP-1 (MCAF) [1] = target: T1, Human MCP-1 (MCAF) (human, UniProt P13500 24-99); assay: Bound chemokines (at least); screen vs control proteins
T1 construct: bought recombinant chemokine
T1 sequence (P13500 24-99 limits assumed): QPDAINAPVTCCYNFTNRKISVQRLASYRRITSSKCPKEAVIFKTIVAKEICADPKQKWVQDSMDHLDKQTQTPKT

Human MCP-1 (MCAF) [2] = target: T1, Human MCP-1 (MCAF); assay: as above; remark: listed apart in the source
[3] = target: T2, human IL-8, (72 amino acids) (human, UniProt P10145 28-99); assay: cell-based or functional assay
T2 sequence (looked up): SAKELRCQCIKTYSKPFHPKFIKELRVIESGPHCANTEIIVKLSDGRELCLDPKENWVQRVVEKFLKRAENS

human MIG [4] = target: T3, human MIG (human, UniProt Q07325 23-125); assay: cell-based or functional assay
T3 sequence (looked up): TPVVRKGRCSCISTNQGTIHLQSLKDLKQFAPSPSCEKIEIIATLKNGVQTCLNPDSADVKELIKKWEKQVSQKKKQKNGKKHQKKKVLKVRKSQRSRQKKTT

[5] = target: T2, human IL-8, (72 amino acids); assay: ELISA on chemokine-coated plates, fold over control proteins (FIG. 3)
Protocol: (§1) NUNC-Immuno maxisorp plates (Cat. No. 4-42404) were coated with the appropriate chemokine (0.1 ml/well, 0.1-1.0 μg/ml in 0.1 M NaHCO₃, pH 8.6), overnight at 4° C. The plates were then blocked with 0.2 ml/well of blocking buffer (5 mg/ml BSA in 0.1 NaHCO₃). Control wells were treated with blocking buffer alone, with no addition of target protein (chemokine). The plates were washed 6 times with PBST (0.1% Tween 20 in PBS), followed by incubation for 45 minutes at room temperature with 10-fold serial dilutions of individual synthetic peptides (10 pg-10 μg) with 1% BSA (PBST-BSA)/well. After the plates were washed 6 times with PBST, the bound peptides were probed by HRP-SA Conjugate, diluted 1:10,000 to 1:20,000 in PBST-BSA, 0.1 ml/well for 45 minutes at room temperature. The target-bound synthetic peptides probed with HRP-SA were quantified by DAKO TMB one-step substrate system, followed by the addition of stop solution, HCl—H₂SO₄ mixture (0.1 ml/well) ON HCl, 3N H₂SO₄). The results were analyzed by ELISA reader at OD₄₅₀.
(§2) As discussed above, the level of binding was calculated by comparing binding of the peptides to the chemokines with peptide binding to controls. Level of control binding was defined as level 1 (up to a one-fold increase in binding). This control binding level is illustrated in the Figure as a dashed line.

human MIG [6] = target: T3, human MIG; assay: as above
Protocol: as §1, §2

human Eotaxin [7] = target: T4, human Eotaxin (human, UniProt P51671 24-97); assay: as above
T4 construct: bought recombinant chemokine
Protocol: as §1, §2

Human MCP-1 (MCAF) [8] = target: T1, Human MCP-1 (MCAF); assay: as above
Protocol: as §1, §2

Human SDF-1α [9] = target: T5, Human SDF-1α (human, UniProt P48061-2 22-89); assay: as above
T5 construct: bought recombinant chemokine; also called SDF-1 alpha
T5 sequence (P48061 22-89 limits assumed): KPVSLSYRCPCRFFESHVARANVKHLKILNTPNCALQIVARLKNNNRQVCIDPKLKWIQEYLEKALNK
Protocol: as §1, §2

human Eotaxin [10] = target: T4, human Eotaxin; assay: peptide-containing carriers, binding vs control proteins (FIG. 1)
human Eotaxin [11] = target: T4, human Eotaxin; assay: Bound chemokines (at least); screen vs control proteins
Human SDF-1α [12] = target: T5, Human SDF-1α; assay: as above
human Eotaxin [13] = target: T4, human Eotaxin; assay: cell-based or functional assay
[14] = target: T2, human IL-8, (72 amino acids); assay: Bound chemokines (at least); screen vs control proteins
human MIG [15] = target: T3, human MIG; assay: as above
[16] = target: T2, human IL-8, (72 amino acids); assay: as above; remark: listed apart in the source

binding result [5]: no binding
binding result (human MIG [6]): no binding
binding result (human Eotaxin [7]): no binding
binding result (Human MCP-1 (MCAF) [8]): no binding
binding result (Human SDF-1α [9]): no binding
B1: BKT-P18 (peptide)
peptide: ACKESATYFCGGGSK(Biotin)G
modifications: disulfide 2-10 (inferred)
notes: general synthetic cyclic format applied; also called control peptide

binding result (Human MCP-1 (MCAF) [2]): binds
Binder: YATQHNWRLKHE [BKT-P53]

binding result (Human MCP-1 (MCAF) [1]): binds
Binder: HHTWDTRIWQAF [BKT-P55]

binding result (Human MCP-1 (MCAF) [1]): binds
Binder: TRLVPSRYYHHP [BKT-P47]

binding result (Human SDF-1α [12]): binds
Binder: CHHNLSWEC (not fully specified (bridges); cysteine pairing not given here) [BKT-P56]

binding result [14]: binds
Binder: SAISDHRAHRSH [BKT-P40]

binding result (human MIG [15]): binds
Binder: CAHLSPHKC (not fully specified (bridges); cysteine pairing not given here) [BKT-P50]

binding result (Human MCP-1 (MCAF) [2]): binds
Binder: ACHASLKHRC (not fully specified (bridges); cysteine pairing not given here) [BKT-P48]

binding result [16]: binds
Binder: LLADTTHHRPWP (the carrier is not described) [BKT-P37]

binding result (Human MCP-1 (MCAF) [2]): binds
Binder: VHTSLLQKHPLP [BKT-P26]

binding result (Human MCP-1 (MCAF) [1]): binds
Binder: GDFNSGHHTTTR [BKT-P27]

The next lines start with the binder.

Binder: LDYPIPQTVLHH [BKT-P46]
binding result (Human MCP-1 (MCAF) [1]): binds

Binder: AHSLKSITNHGL [BKT-P44]
binding result (Human MCP-1 (MCAF) [2]): binds

Binder: HSACHASLKHRC (not fully specified (bridges); cysteine pairing not given here) [BKT-P49]
binding result (Human MCP-1 (MCAF) [2]): binds

Binder: WSAHIVPYSHKP [BKT-P52]
binding result (Human MCP-1 (MCAF) [2]): binds

Binder: ESDLTHALHWLG [BKT-P51]
binding result (Human MCP-1 (MCAF) [2]): binds

Binder: HHFHLPKLRPPVGGGSK(Biotin)G [BKT-P45]
Level of Antagonistic Effect (T cell arrest under laminar flow on VCAM-1 plus chemokine) [3]: 100%
Level of Antagonistic Effect (T cell arrest under laminar flow on VCAM-1 plus chemokine) (human MIG [4]): 20%

B2: BKT-P22/38 (peptide)
peptide: LGFDPTSTRFYT
notes: the carrier is not described; also called BKT-P38
binding result (human Eotaxin [10]): binds

Binder: GVHKHFYSRWLG [BKT-P33]
binding result (human Eotaxin [11]): binds

Binder: SVQTRPLFHSHF [BKT-P34]
binding result (human Eotaxin [11]): binds

Binder: SIPSHSIHSAKAGGGSK(Biotin)G [BKT-P2]
Level of Antagonistic Effect (T cell arrest under laminar flow on VCAM-1 plus chemokine) (human MIG [4]): 50%

Binder: SAGHIHEAHRPLGGGSK(Biotin)G [BKT-P39]
Level of Antagonistic Effect (T cell arrest under laminar flow on VCAM-1 plus chemokine) (human Eotaxin [13]): 100%
